# From the domain aggregation screens of Martell et al. (2025)
# Test: soluble fraction after stress (log2 fold change); higher = more stays soluble; pooled small domains, quantitative proteomics
# Conditions: stress: 75 degC
# 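Note: 20 min heating vs room temperature control held 20 min.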
row,Sequence,soluble fraction (log2)
1,HMKKDRKKMLKEGIVLFEKILRGMELSPTSEPLKKVLTSFNIQNKEDLYVKLGAGVISSEEVIKELKKK,-0.0286
2,HMKKILIVTNRSAGMVVYTIPEEGIRREFTPGETKKIPFEELEKLAYLSGGRTLMENFLKIVDTETTEELG,-2.24
3,HMKKIYEEVSEAILTMIKNGTLKPGDKLLPVHQLAEQFQVGRSAVREALSALRAMGLIEMKQGEGTYVKNF,-1.52
4,HMKKKVDSENLLLDILKQMQPQASTNVLRKMLTNQRISVDDQIIHRAKHVVQEGQTVEIHPKP,-0.0451
5,HMKKLPEKFDYNEISGLRIEAQQKLNEFQPLNIGQASRISGVTPADISVLLVYLEQLKYSNPDLFFKLNPD,-1.52
6,HMKKLTAEEIQEAKDILEKIQEIPNFKKIFGDDTIKALENSTKTGVLLPDNIISKIHTLMIRFGIK,-0.202
7,HMKKMEEEFALFNAWVDRRLGIPLAAYKENQMQRRILTIMENSGAKTLREYQQLIEGDEGVRAAFLAHIT,-2.15
8,HMKKPIYLTIANDIEKKIFNNDYPKNERLPSERNLAEEYGVTRMTIRNSIEYLVSKGLLEKRLGSGNYVKR,-1.55
9,HMKKPLEYIDVDKREDFPPVPNGMRYIHFYGGTKNYRAYIAPEDISRADFMEQYPEYVPEHN,0.237
10,HMKKSTLLLFFLKELLEGKKISLKSFALENDINIRTAQRYIEDIEEAFPDNLLKENDFYSFV,-2.89
11,HMKKTETVRFTTNVTHGTKIKETDVEVVKISNSALPDKVVKNKTEVIGKYATADLFKGDFATENKVTD,0.142
12,HMKKTIIVHVVGEVNTPGIVELNEGARIIDAINGAGGKTEEADMSKINLAYVIEDGSQIYVPSIYE,-0.387
13,HMKKTITISNYINVRDFATMSELPVNSILSVLMKNGIFVSLNEKIDFDTAWLVGSELGLEVKQKQG,-1.58
14,HMKKYEFIEDLPGVGPATAQKLRDLGYHTVESLAMATARELEPIGVGEKKAFSMIEAARSAIGFS,0.284
15,HMKKYISEEQAKQAALETAGGGSVVKIKFTTDDGIKVYEIDIINGNYEYEITVHAETGKILDVDKERIH,-1.6
16,HMKLELSNDFYNKIRLARKENGLTQEDLAEKLNMKVGVIQKIENGVRQTDSNLMKISKFLGVEIYVE,-1.98
17,HMKLPNGYGGIAKLSGKRRNPWRVRVTKGWSVDEQTGKAKQLFSTLGYYPTRKDALAALSAYNQNP,-1.64
18,HMKLRLGVNIDPVATVRNARGSAYPDPVRAAIIAQEAGADGITAHLREDRRHIVDQDITSIIKAIDIPLNF,-0.129
19,HMKLRSIQEQVQYLEKVDNQKAMQIILNMNDKASAVQILRNMKKEKAAAILAQMDPLQAAQILEDLA,-0.34
20,HMKLSDDIIVDTIKEIIEENKNMIEQRKMGAMGPLMGKAMAKFKGKADGQTVSNVIKDEILNIIN,-0.0773
21,HMKLSIEDLAAELIRKIEAGDIGNEQGKMPSERELLAIYPVSRYTLRQALNKLSKMGWIYQMQGRGSYIRF,-1.48
22,HMKLSNELLNAIMLIKKGIRNPTSLAQRLNTDTQYAKNLLEHLKMTGLINEHSRLTSRGLDIFHQK,0.356
23,HMKLTEEEFNAKRKAYLDRLETLNDEAVIKATFMEAASGLGLQKGSAEFGDLRKYFVDRIVDIK,1.01
24,HMKLTEGETIFLNESDTADWKKIPGIGSVYASRIVKYRNLLGGFVSVNQLREVYGIDDELFAKIYPYI,0.085
25,HMKLTESQLHKFTNDAVLAHIRNLIEFKGAFTEDDIEPIIRDRAAVYGIDLEDEDYKKVKTDVEYHFK,-0.0402
26,HMKLVELVGSPKQIAWAEDIRKNMISYLSALVRKYEAENRPARAEKRAKDMEILSNIKEASWFIENRS,-0.733

row,Sequence,soluble fraction (log2)
1,HMKMAKTIKEIAEEIGVSKQAVFKKIKQVPLSTEIEKFISTVDGKKLVSVDGENLIKQAFQR,0.355
2,HMKMLKAPIPGTIIEVKVNPGQTVNDGDVAVVLEAMKMESDIHFNSSGKVKKIHVNKGDSVQEGDDLIELE,0.0235
3,HMKMNRELNQRQIKMLDYLSVNPKTTRKQYTKMMGISFMTSYRDIQELIDKAYIISKGQGRGTYYILAN,-0.709
4,HMKMQIGEIIRKYRKSNHMTQEEMAERLGVSAPAVNKWENGNSMPDIMLLAPITRLLGISLDELLSFE,-2.26
5,HMKMSVEEVNLSPRTTNALINNDIKTMKDLVALTDTELRDLKGFGSKAYEEVKEKLSELGLSTQ,0.503
6,HMKMSVKNEIISLLEKNRDTSISGQVIADSLNVTRAAVWKAIKVLKEEGYNIDGTPNKGYILLGNN,-1.22
7,HMKMTFGENLHKLRKIYRLSQEDVASAINLKRSDIAAVEKGDRVLNDEELDKLADFIGIDIVDLL,-0.479
8,HMKMVSTPTGTRISLTQVKEFISNASFDDMKEILLEVLAWFKAHNLGNPFNYNRAFEFIVAH,-0.256
9,HMKNELNSKLIISIKEALPPQIKVATYLMDLLSLGREAVYRRIRGDVSFDLEELSIISKALNISIDDVL,-3.9
10,HMKNESLMLPRDIDYSRVHGLSNEAIQKLQDALPQSLGQASRIEGITPATLSLLLLYLKKNNKRI,-0.00281
11,HMKNHSTFKSVLSNIEFPINERISGHAIQNPILGLIKADHPNFSSDQYIAISELNFYREKYISNYLLTEI,-3.67
12,HMKNKIYGTIVSSTSGEETVYKVFQVDSSKDITYLFRPDMIRLAHENNQALEFNEETGRGKRIEMSDLPK,-0.106
13,HMKNLHLVPNVVGMSAKEAKNTLKSFNIKYKPIYGSSNKYDENYIFNQNPRKGKTIKEQEVVTIYISRGAD,-1.42
14,HMKNNNIIFSEFLKEVENGRVVEVRIQGNNIQGIMSNGKEFTTYSPNYPNLIEKLTETGVSISAAPL,0.434
15,HMKNPLIIGMTKDKIIELIGMPDNIKFLDSSLSKSEVWNYDKFGKKLYIKDEKLYQIENIEE,0.0985
16,HMKNSAAKETILAFLKKNGGELFTQMQIIEKFQKMIPAPVLRITLEELLNKGQVEITSKGKYYLSVKGS,-2.08
17,HMKNSKIVIQKRHNHILELLKQNRTMDVTVLAERLGVTGATIRRDLKKLEQEGTIVRSFGKVSFVG,-2.18
18,HMKNTVGEYRKLKSTTILYSNSDLTGTKYTYLPNTTVKILKNISSTVDYVYIKATNRYAYINIYAYT,-2.69
19,HMKNVENIILEQLKKNIYDDLNNASFEEIILIDAEKSIYKGTIKANYIEYNFKINLSTGEILKWKLK,-1.95
20,HMKNVSVKMILSPESLGEIQVDLVFSKGKDLEIMLRPETAEVAKLIQSNSASLREQLSLEHKGPLSLNVS,-0.32
21,HMKNYALHEPMMDRIAKVNALYDAGHTIKYMTARGAVSMVDYYDLTKSQLDSWGAKYHELSVGK,0.12
22,HMKNYYEVLGVPRDAAAPDIKRAFRKLAKQFHPDHNPGDAKAEERFKLVSQAYDVLGDEEKRKLYDQFGE,0.0891
23,HMKNYYSILGVTPDSSEAEIKSAYRRLARKFHPDVNPDGASRFKDISEAYETLSDAKKRFQYDTINGF,-0.0709
24,HMKPATSITFIPSERPDLVEQLSKITFDKKDSLYENYINLNWLTFEAISVYMREGDIIGFST,-0.148
25,HMKPDAAKREQLIDIALRLFSQQGIARTSLNAIAREAGVTPAMLHYYFNSREQLLDVMIEERFL,-3
26,HMKPDIETQLKKYRYKVSVSKKIKPYMVFSDKTLSELLTKSPTNLKELEDINGFGPVKVQEYGAAILEILK,-1.19

row,Sequence,soluble fraction (log2)
1,HMKPDSEFTSQDLWQNDLAGTGSAAYRRDKMGALLGIGYGNAKRFLERLNSYGVTRSEFDEALAQLGE,-0.188
2,HMKPEDIALLEEIRDLLKEKKSVIVNLEYVNKDVARRIVDFISGGVFALNGHIQKVSNSIFLVAPMN,-0.00621
3,HMKPMNNNDILRRLRYTFDLSDDKMMETFALGGYEANRSEISDWLKKDDHPEQKSLYDKSLSHFLNGFIV,-0.178
4,HMKPPVQVIGKAVVTASSLNVRTGPGTGHGIITSLPRNTEVELLEQQGEWYKIRRGSTVGYVHGGYLKIN,-0.311
5,HMKPRISMITLGVKDLNKSIEFYGGGLGFPRKKTEPEIAIFKLNGSWLSLYNRGLLAEDANVS,-0.184
6,HMKPSKYTLAIDSIPVHVTRKQMKSIRLRVTPLGEVRVSAPYGVKDSEIVEMVRSRKLWIESQQRA,-2.34
7,HMKPSTETLYATARINVRAAADTSAEKLGSIEMGEAVVRTGTDGDWSIIEYNGSTGYVKSEYLTANAGDAT,0.232
8,HMKPSVEIKVNGGTGAGVVKKGGSITVTANEPAEGKVFTGWQDESGKIVSTQKEYTFTVAEGTTLTAVYED,≥ 1.04
9,HMKPTGWVRGDMGVVDKGQLSITQGTVNVRSGPGLSYEILDQVRRGDRFPVIKSQSGWHNISM,0.249
10,HMKPTSLLGIERYLGSGLIRGVGPSTAKQIVEHFGMETMEVLTEHPERLQEVHGMGRKRWRQIAESFQEQQ,-0.869
11,HMKPVTVINFVGMTEEKAMTEAEKLGLVVGASSSEYSDEPAGTVIRQSISVSTEAKTGDNIYFTVSKGPE,0.677
12,HMKQETLNEIGTKIRKLRESKNLSIQEFADKLEMEYNNVIRIEKGRTNFTIGTLVKIANSLEVNLKDI,-2.41
13,HMKQFVVQYYGIDGEVINSVYKNGMSDLTSYEPEKIDGKNFKGWSLSEDSKKVIDENYRINSDVNLYAVYT,0.758
14,HMKQHPTIDLQIGQKLHYKEDVFEVTRFAKDKNGQDMVILKDPSIGSGIEIPWYRSKLEEIIESGQYKIT,0.361
15,HMKQIEEIIARYTNENTPLMMILSDVQREYGYIPLDVQELISEKTGIPVAEIYGVVTFYSFFSL,-0.676
16,HMKQISQNIHRLRKEKGMSQEQLAQALHVTRQTVSAWERGIAQPSLDVLGQIAQLLGVEPERLLYGE,0.288
17,HMKQLQIPYSFAKRHGVLLRYEGDQAFIVRRDNTSMLALQEARRLLGHPAHYLLYSEQEFNQLLSASFA,-2.69
18,HMKQLVVVPRVVSLSEGKAREDVGDRGLVVDRVEMDTLRTPYENTVTRQEPAADSRVPVGTRVTLWISPGV,0.567
19,HMKQNSDDGEIRKIIIEILDNNLDNVNKYKSGRTNVLDFFVGQVMKQTRGQANPELTRSILTEELSN,-0.169
20,HMKQQTRAELLDEFAKAHAERGLYFNRDYEQGEIQALQPDKAREYLQSALEARTERQQASEQDR,0.262
21,HMKQTDQELAEMLRFRAAQRGLLMSDEVVNYVMTRVERSAKSLIMLLDRIDRAALAQARPVTIPLINEL,-0.523
22,HMKQVEVPRLVGLTLREAQAVLGQVGLRIGLISRAALLASPREQIVEQIPVAGERNIATPYVNLLVNVP,-0.895
23,HMKRDEYIAQLKKYLKRLPKKEYDSAIEYFTEYFDEAGPERELEVIQELGQPKEAAKEMLLQLLNE,-0.105
24,HMKRDNETRRRIVAAAEELFRAKGLDGVNMRELAEMAGVNKGLLHYYFKTKQALFREILVGQMAL,-1.31
25,HMKRDRLYGITIYLLNHGRTSAKTLAEYFEVSVRTIQRDMDALSMAKIPIIAYPGSDGGYEIQEGYRL,-3.03
